Amyloid nucleation score data for 103 substances are collected here from the supplement of paper PMC12042874.

± gives the uncertainty stated by the source.

A short description of this data set: amyloid nucleation score (Sup35N fusion, yeast selection) (log enrichment); library NNK2; higher = more nucleation; inactive = no reads after selection. In short, it runs like this:
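Sup35N was fused to peptides of 20 random codons and expressed in psi-negative yeast, which were induced with 100 μM copper sulfate for 24 hours and then grown on medium lacking adenine and uracil for 7 days at 30°C. Plasmid inserts from input and output were sequenced on Illumina. The nucleation score is the DiMSum log enrichment of output over input reads, centred on the mode score of non-aggregating sequences. Sequences with under 100 input reads were left out, and random libraries had three technical output replicates.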

CVTRMDYTDVSDMHLM: the amyloid nucleation score is 0.307 ± 0.56. For IDHYLVLASLDW the value was -0.41 ± 0.47; for YRVAMYMDSVFIMYAYDIPN, 2.1 ± 0.14. In the case of QDYTDHPGIIFSFRGCSRDT it was “inactive”; in that of TAKHDYFLSEESRRLYSSKY, 2.31 ± 0.063; in that of SGTMSLLKMLLEYKLLT, -0.678 ± 0.76. For YFLGMVPSFSLWYETSQSQC the value was -0.768 ± 0.42; for STSIAVANHWVSYFFVSSGL, 8.998 ± 0.038. LSINLSDMNFVVHSCLGSLG: the amyloid nucleation score stood at 5.45 ± 0.077. For RKMGSFNHLSERVSYHCVWL the value was 3.96 ± 0.052; for INWSHRGIISLDERMIIQYV, 0.154 ± 0.65; for ITMSQNSWNFRHDGTLVGLK, 0.377 ± 0.3.

As for NDLESMYSEGFPLLNTAHK, the amyloid nucleation score entry was “inactive”. In the case of MHRFRMSLVLRRGSGLVGWF it was -0.081 ± 1.1; in that of RHCDLQSRLPSTWYLVRYPC, 0.885 ± 0.74. For SPFNRLHY the value was -0.101 ± 1.1; for FKNTIV, -0.343 ± 0.56; for RACFHHIIGDCCYASFN, 8.757 ± 0.05.

On to LTVLLSMK, for which the amyloid nucleation score was -0.911 ± 0.5. In the case of MPAFWSWSERGLSVRILGPA it was 3.05 ± 0.084; in that of IQEVRVACCWLIFRGCIRTA, 4.1 ± 0.12.

Turning to SGLLSFLTHSLFEFLSNKQW, the amyloid nucleation score was -0.557 ± 1.1. For RPNAVVFLTDNNVRRSDCWV the value was -0.639 ± 0.28; for SSTIITSLTHFCSTGDWEVV, -0.434 ± 0.24. In the case of FSYMYPRGLLVINMSGVQVN it was 1.22 ± 0.17. In the case of APGWKLMNTSPNRMSTLNLQ it was -0.633 ± 1.1.

On to NFYIATIRTAFLSVMAVRN, for which the amyloid nucleation score amounted to 3.29 ± 0.089. For YSNYTHRNSTLGFKQISRTS the value was 0.063 ± 0.79; for CCVVYF, 9.638 ± 0.039; for KVFLFIFGLLTESPGCDQSP, -0.536 ± 0.4. In the case of ITQRHSVNLNMMSLDLYTSS it was 0.295 ± 1. In the case of TVHFLHILIIFRSWSEGMPV it was -0.345 ± 0.74; in that of DCMLNGLRWEMMLYKLDCFT, 0.189 ± 0.64. With SFGYPPVCLLFSHLHRRFLL, the amyloid nucleation score was determined as 0.237 ± 1. In the case of LSNWHHFSQSRDFDKSLWVS, the amyloid nucleation score is -0.386 ± 0.42.

For the substance NTRRSFVRVYFNGLGLCGAN, the amyloid nucleation score result was “inactive”. In the case of NGLLSRNCIWSFGFESEVEG it was “inactive”; in that of PSVACGERCKPMCKVTLSPC, 1.42 ± 0.33. For DRSFVETREVACVVMYTSVF the value was -0.395 ± 0.61; for NVLRFSSTSLYGLAFLAEGS, -0.577 ± 0.3. The substance FMTFK registered an amyloid nucleation score of 3.14 ± 0.13. In the case of LCSRFALWVRKF it was -0.291 ± 0.63; in that of RFSLSMDLLNPYST, 4.15 ± 0.13; in that of RNEQMSPCITWVNYPDYLRT, 0.909 ± 0.6. For IFNWECMDAFFSLK the value was “inactive”; for VRDLPMCNPYIRYTLFCQVS, -0.497 ± 0.45; for EMIIL, -0.259 ± 0.32. In the case of QMQPTGLRQNLSSPWPFVGE it was 0.993 ± 0.29; in that of YSFNLCNS, -0.013 ± 0.45. SLGPRRSCCTIWKVWAYAGS had an amyloid nucleation score of 0.241 ± 0.42. Substance YQRRRSGGLELDWSNTMQGC came in with an amyloid nucleation score of -0.015 ± 0.31. In the case of YCERAHALICSLRQVGWVPR it was 0.719 ± 0.25; in that of DCCRWSVLVVIVLAARSSMS, 3.17 ± 0.099.

In the case of DCIHCSRTNAADWMGYVFGY, the amyloid nucleation score stood at 4.82 ± 0.085. For LLKTSASCIMHGEKQKWMLA, the amyloid nucleation score stood at 0.671 ± 0.64.

Consider MWRFRPLRSDTLRYDGSMGC, for which the amyloid nucleation score is -0.021 ± 0.76. In the case of RYVTKGLCLL it was 1.16 ± 0.47. In the case of TGAWLALFLGRHAKWLALFM it was 0.817 ± 0.26; in that of AYRWMDSSSTRFGTGLG, 0.895 ± 0.81; in that of SNMIHDEIWLMGEDSDF, 0.674 ± 0.49.

NIRNRSVNDLIRRDAYRLAL had an amyloid nucleation score of -0.175 ± 0.8. For GSSGFGRVLTGIYKCYTYWE the value was “inactive”; for IRNQWMQVSQVFSVSRAVET, 0.369 ± 0.3; for YLLTLFGPRMTD, -1.45 ± 0.76. For AHIVGMSSSWRLKRYISIES the value was 0.768 ± 0.43; for QLFVMPCMNSFEGRKRNCFS, -0.836 ± 0.48; for DDSHLNCDNRIVISMLRNGN, 0.528 ± 0.32. In turn, FYGRCLTFTAHPSFSRFAR gave an amyloid nucleation score of 0.333 ± 0.61. In the case of IHWNKIMRFTFKYGILLYPS it was -0.525 ± 1.1; in that of LRFYPW, 1.14 ± 0.36; in that of YWSCTMRVFRVTLNCSNS, 3.44 ± 0.066. With FPLLNCKRACLKAAVEAHYR, the amyloid nucleation score is 0.076 ± 0.61.

In turn, NGWLFFWFSIRITTSQVTSL gave an amyloid nucleation score of 2.54 ± 0.098.

With CKWIKEIVVED, the amyloid nucleation score was -0.981 ± 1. As to ARGGKLLSCFCSGWRLDHVR, the amyloid nucleation score was 9.958 ± 0.051. In turn, NNLHPDYDMGIGYIIDGDPA had an amyloid nucleation score of -0.34 ± 0.62. For WVSSQAEWGVLCGICRSLES the value was “inactive”; for ESDVSRDRMMALRNMYFCHR, 0.192 ± 0.74; for WGFIVDFILSGRRPAGYQLL, 0.309 ± 0.8. In turn, CLVWLDI had an amyloid nucleation score of -1.11 ± 0.55. In the case of FYSCCPWLSLRSAMIYVMIS, the amyloid nucleation score turned out to be 1.61 ± 0.22.

Substance WDSQESITKS showed an amyloid nucleation score of -0.172 ± 0.54.

In turn, HGASSVAFNLLLSCVSWVGC gave an amyloid nucleation score of 7.468 ± 0.04. In the case of LCNSTNSESIIVLDITALTH it was 0.405 ± 0.51; in that of NGDMWKHIKRRQVNNRG, 0.881 ± 0.67. In the case of VVANINEVLINPRCSAGFHD it was 0.683 ± 0.74; in that of MRTRWAVITKMFRRGWEVKV, 0.753 ± 0.67; in that of FPLRLLWSGGALCATPPIRV, 0.655 ± 0.47. In the case of WSCYKNWG it was -1.13 ± 0.5; in that of VIIRSFR, -0.629 ± 0.34; in that of MNKCFFTSRSEG, “inactive”.

As for QIGNVFNRY, the amyloid nucleation score is -0.283 ± 1. In the case of DKSIR it was 0.239 ± 0.33.

Substance SNRHSVRKAAWIWGRDFLRA gave an amyloid nucleation score of 0.346 ± 0.38. For LSFGIVKLVMRAFTKKVTKG the value was 0.388 ± 0.47; for VMCIG, -0.33 ± 0.41. The substance LTDNS had an amyloid nucleation score of 0.147 ± 0.61. In the case of QVFFFLITSRVRSVRFSQEF it was 1.62 ± 0.25; in that of RNLGLMVTILSAELFRRCLW, -0.812 ± 0.23. Regarding VSRSVY, the amyloid nucleation score stood at 0.166 ± 0.3.

SDGARLWR: the amyloid nucleation score stood at 0.097 ± 1.1.

The substance DLGHLTLISKFKFNESSAEH came in with an amyloid nucleation score of -0.221 ± 1.1.

Substance LSFRYVFIWIEVFPILGNMR returned an amyloid nucleation score of -1.77 ± 0.34.
